The source of these data is US20250270254A1, “PROBES AND KITS FOR THE EARLY DIAGNOSIS OF DIFUSE LARGE B-CELL LYMPHOMA” (BEIJING BOE TECHNOLOGY DEVELOPMENT CO., LTD., priority 2022, published 2025).

First the molecules themselves.
B1: BtaPL3 (peptide)
peptide: ICWRRRRRRRRRF
notes: Designed synthetic polypeptide probe; spotted on a bare gold SPRi chip; also called Ile-Cys-Trp-Arg9-Phe
B2: Bta1335 (peptide)
peptide: CCHRGF
notes: Synthetic polypeptide probe from the Mix-Split library; spotted on a bare gold SPRi chip; also called Cys-Cys-His-Arg-Gly-Phe
B3: BtaE1 (peptide)
peptide: ICWRRRGGGF
notes: Designed synthetic polypeptide probe; spotted on a bare gold SPRi chip; also called Ile-Cys-Trp-Arg3Gly3-Phe
B4: BtaP1 (peptide)
peptide: HCWRRF
notes: Designed synthetic polypeptide probe; spotted on a bare gold SPRi chip; also called His-Cys-Trp-Arg-Arg-Phe
B5: BtaPL5 (peptide)
peptide: ICWRRRRRRRRRRRRRF
notes: Designed synthetic polypeptide probe; spotted on a bare gold SPRi chip; also called Ile-Cys-Trp-Arg13-Phe
B6: BtaPL1 (peptide)
peptide: ICWRRRRRF
notes: Designed synthetic polypeptide probe; spotted on a bare gold SPRi chip; also called Ile-Cys-Trp-Arg5-Phe
B7: Bta893 (peptide)
peptide: HCWRGF
notes: Synthetic polypeptide probe from the Mix-Split library; spotted on a bare gold SPRi chip; also called His-Cys-Trp-Arg-Gly-Phe
B8: BtaP2 (peptide)
peptide: ICWRRF
notes: Designed synthetic polypeptide probe; spotted on a bare gold SPRi chip; also called Ile-Cys-Trp-Arg-Arg-Phe
B9: BtaPL4 (peptide)
peptide: ICWRRRRRRRRRRRF
notes: Designed synthetic polypeptide probe; spotted on a bare gold SPRi chip; also called Ile-Cys-Trp-Arg11-Phe
B10: BtaPL2 (peptide)
peptide: ICWRRRRRRRF
notes: Designed synthetic polypeptide probe; spotted on a bare gold SPRi chip; also called Ile-Cys-Trp-Arg7-Phe
B11: BtaE2 (peptide)
peptide: ICWGGRRRGGGF
notes: Designed synthetic polypeptide probe; spotted on a bare gold SPRi chip; also called Ile-Cys-Trp-Gly2Arg3Gly3-Phe
B12: Bta3097 (peptide)
peptide: GCYRRF
notes: Synthetic polypeptide probe from the Mix-Split library; spotted on a bare gold SPRi chip; also called Gly-Cys-Tyr-Arg-Arg-Phe
B13: BtaP3 (peptide)
peptide: ICWRRGI
notes: Designed synthetic polypeptide probe; spotted on a bare gold SPRi chip; also called Ile-Cys-Trp-Arg-Arg-Gly-Ile
B14: BtaE3 (peptide)
peptide: ICWGRRRGGF
notes: Designed synthetic polypeptide probe; spotted on a bare gold SPRi chip; also called Ile-Cys-Trp-Gly-Arg3-Gly2-Phe

Where a SMILES comes first, the peptide text is derived from it. Where only a bound is given, the exact number is not on record here.

In the first experiment the test system is diffuse large B-cell lymphoma cells. The experiment is described as follows: Analysis of probe specificity: probe-coupled magnetic bead capture from mixed cells, flow cytometry. Type of experiment: cell-based. The note with it: positive cells (diffuse large B-cell lymphoma cells) mixed with negative cells (HELA cells) 1:10; proportion of positive cells among captured cells by flow cytometry. On the procedure:
The diagnostic specificity of the small molecular probe was detected using flow cytometry and the specific steps were as follows: • 1) Preparation of gradient concentration of cell samples: positive cells (diffuse large B-cell lymphoma cells) were mixed with negative cells (HELA cells) at a ratio of 1:10 and repeatedly pipetted to mix well; • 2) Probe-bead coupling: the reaction was performed in PBS buffer, with a bead-coupling concentration of 1 mg/mL, and 1 mg of beads corresponded to 10 μg of the BtaE3 probe, with gentle shaking for 1 h at room temperature. This was followed by washing five times with PBS buffer containing 0.01% BSA, standing for 30 s each time, and finally resuspending in PBS buffer at a concentration of 15 mg/mL; • 3) Positive cell enrichment: cells were thoroughly mixed with the magnetic bead suspension, with shaking by hand for 30 min at 4° C. in an ice box, followed by washing three times with PBS (containing 0.1% BSA and 2 mM EDTA) buffer and resuspending in PBS; • 4) Specificity analysis: The captured cells were separated using a magnetic field, and the protein expression profile was quantified by flow cytometry to calculate the proportion of positive cells.
For orientation: In flow cytometry, cells or beads pass a laser one at a time.
Consider `CC[C@H](C)[C@H](N)C(=O)N[C@@H](CS)C(=O)N[C@@H](Cc1c[nH]c2ccccc12)C(=O)NCC(=O)N[C@@H](CCCNC(=N)N)C(=O)N[C@@H](CCCNC(=N)N)C(=O)N[C@@H](CCCNC(=N)N)C(=O)NCC(=O)NCC(=O)N[C@@H](Cc1ccccc1)C(=O)O` [BtaE3, Ile-Cys-Trp-Gly-Arg3-Gly2-Phe] (H-ICWGRRRGGF-OH; N-terminus and C-terminus assumed), for which the specificity for detection was over 90%.

The target of another experiment is CD138 (UniProt P18827 23-251). Nature of the experiment: SPR imaging (SPRi); probe spotted on bare gold chip, CD138 flowed at 50-800 nM.
Chain of CD138 (P18827 23-251): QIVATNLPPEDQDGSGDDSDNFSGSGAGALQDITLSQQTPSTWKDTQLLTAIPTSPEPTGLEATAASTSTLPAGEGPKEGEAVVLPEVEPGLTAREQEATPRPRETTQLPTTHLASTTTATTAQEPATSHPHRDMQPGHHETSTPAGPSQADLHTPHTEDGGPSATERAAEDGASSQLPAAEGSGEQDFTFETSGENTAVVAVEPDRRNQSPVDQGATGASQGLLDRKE
Conditions: not given
B1 displayed a Kd of 6.56 nM.
With B2, binding was put at a Kd of 2.57 nM.
On the same count and under the same terms, the value for B3 was 0.702 nM; that for B4 was 1.15 nM.
Same read-out and setting: the value for B5 was 85.7 nM; that for B6 was 0.856 nM; that for B7 was 1.29 nM.
The same measure, in the same setting: the value for B8 was 1.02 nM; that for B9 was 9.21 nM.
The molecule B10 had a Kd of 0.731 nM.
On the same count and under the same terms, to B11 belongs 0.309 nM; to B12, 5.26 nM; to B13, 0.977 nM.
On the same count and under the same terms, to B14 belongs 0.121 nM.

The term Kd denotes a measure of binding affinity in units of concentration. A higher Kd goes with weaker binding.
